Blank lines part the entries; values can stand above or below the binder they belong to.
Assays:
[1] = molecular target: M44-modified L NTAA target peptides (M44-L-P2-peptide); experiment: Gini coefficient of P1 selectivity from multiplex encoding heatmap
[2] = molecular target: M44-modified W NTAA target peptides; experiment: encoding assay; P2 M;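 also: fraction of recording tags encoded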
[3] = molecular target: M44-modified S NTAA target peptides; experiment: encoding assay; P2 Y
[4] = molecular target: M44-modified E NTAA target peptides; experiment: encoding assay; P2 S;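 also: fraction of recording tags encoded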
[5] = molecular target: M44-modified N NTAA target peptides; experiment: encoding assay; P2 S
[6] = molecular target: M44-modified D NTAA target peptides; experiment: encoding assay; P2 S;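 also: fraction of recording tags encoded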
[7] = molecular target: M44-modified W NTAA target peptides; experiment: encoding assay; P2 S;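 also: fraction of recording tags encoded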
[8] = molecular target: M44-modified S NTAA target peptides; experiment: encoding assay; P2 S
[9] = molecular target: M44-modified G NTAA target peptides (M44-G-P2-peptide); experiment: encoding assay; P2 E;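 also: fraction of recording tags encoded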
[10] = molecular target: M17-modified Y NTAA target peptides (M17-Y-P2-peptide); experiment: Gini coefficient of P1 selectivity from multiplex encoding heatmap
[11] = molecular target: M17-modified W NTAA target peptides; experiment: encoding assay; P2 M;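 also: fraction of recording tags encoded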
[12] = molecular target: M17-modified S NTAA target peptides; experiment: encoding assay; P2 Y;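 also: fraction of recording tags encoded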
[13] = molecular target: M17-modified E NTAA target peptides; experiment: encoding assay; P2 Y;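 also: fraction of recording tags encoded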
[14] = molecular target: M17-modified N NTAA target peptides; experiment: encoding assay; P2 Y;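 also: fraction of recording tags encoded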
[15] = molecular target: M17-modified Q NTAA target peptides; experiment: encoding assay; P2 Y;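 also: fraction of recording tags encoded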
[16] = molecular target: M17-modified M NTAA target peptides; experiment: encoding assay; P2 Y;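 also: fraction of recording tags encoded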
[17] = molecular target: M17-modified T NTAA target peptides; experiment: encoding assay; P2 Y;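 also: fraction of recording tags encoded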
[18] = molecular target: M17-modified Y NTAA target peptides (M17-Y-P2-peptide); experiment: encoding assay; P2 Y;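 also: fraction of recording tags encoded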
[19] = molecular target: M17-modified A NTAA target peptides; experiment: encoding assay; P2 Y;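 also: fraction of recording tags encoded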
[20] = molecular target: M17-modified H NTAA target peptides; experiment: encoding assay; P2 Y;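 also: fraction of recording tags encoded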
[21] = molecular target: M17-modified D NTAA target peptides; experiment: encoding assay; P2 Y;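 also: fraction of recording tags encoded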
[22] = molecular target: M17-modified S NTAA target peptides; experiment: encoding assay; P2 S;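 also: fraction of recording tags encoded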
[23] = molecular target: M17-modified E NTAA target peptides; experiment: encoding assay; P2 S;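 also: fraction of recording tags encoded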
[24] = molecular target: M17-modified N NTAA target peptides; experiment: encoding assay; P2 S;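 also: fraction of recording tags encoded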
[25] = molecular target: M17-modified V NTAA target peptides; experiment: encoding assay; P2 S;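 also: fraction of recording tags encoded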
[26] = molecular target: M17-modified Q NTAA target peptides; experiment: encoding assay; P2 S;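 also: fraction of recording tags encoded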
[27] = molecular target: M17-modified M NTAA target peptides; experiment: encoding assay; P2 S;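 also: fraction of recording tags encoded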
[28] = molecular target: M17-modified T NTAA target peptides; experiment: encoding assay; P2 S;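 also: fraction of recording tags encoded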
[29] = molecular target: M17-modified F NTAA target peptides; experiment: encoding assay; P2 S;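 also: fraction of recording tags encoded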
[30] = molecular target: M17-modified G NTAA target peptides; experiment: encoding assay; P2 S;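 also: fraction of recording tags encoded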
[31] = molecular target: M17-modified L NTAA target peptides; experiment: encoding assay; P2 S;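 also: fraction of recording tags encoded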
[32] = molecular target: M17-modified Y NTAA target peptides (M17-Y-P2-peptide); experiment: encoding assay; P2 S;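 also: fraction of recording tags encoded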
[33] = molecular target: M17-modified A NTAA target peptides; experiment: encoding assay; P2 S;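 also: fraction of recording tags encoded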
[34] = molecular target: M17-modified H NTAA target peptides; experiment: encoding assay; P2 S;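 also: fraction of recording tags encoded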
[35] = molecular target: M17-modified D NTAA target peptides; experiment: encoding assay; P2 S;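 also: fraction of recording tags encoded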
[36] = molecular target: M17-modified I NTAA target peptides; experiment: encoding assay; P2 S;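 also: fraction of recording tags encoded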
[37] = molecular target: M17-modified P NTAA target peptides; experiment: encoding assay; P2 S;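 also: fraction of recording tags encoded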
[38] = molecular target: M17-modified S NTAA target peptides; experiment: encoding assay; P2 E;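 also: fraction of recording tags encoded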
[39] = molecular target: M17-modified E NTAA target peptides; experiment: encoding assay; P2 E;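 also: fraction of recording tags encoded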
[40] = molecular target: M17-modified N NTAA target peptides; experiment: encoding assay; P2 E;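 also: fraction of recording tags encoded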
[41] = molecular target: M17-modified V NTAA target peptides; experiment: encoding assay; P2 E;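 also: fraction of recording tags encoded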
[42] = molecular target: M17-modified Q NTAA target peptides; experiment: encoding assay; P2 E;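 also: fraction of recording tags encoded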
[43] = molecular target: M17-modified M NTAA target peptides; experiment: encoding assay; P2 E;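 also: fraction of recording tags encoded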
[44] = molecular target: M17-modified T NTAA target peptides; experiment: encoding assay; P2 E;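 also: fraction of recording tags encoded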
[45] = molecular target: M17-modified F NTAA target peptides; experiment: encoding assay; P2 E;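 also: fraction of recording tags encoded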
[46] = molecular target: M17-modified G NTAA target peptides; experiment: encoding assay; P2 E;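 also: fraction of recording tags encoded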
[47] = molecular target: M17-modified L NTAA target peptides; experiment: encoding assay; P2 E;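 also: fraction of recording tags encoded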
[48] = molecular target: M17-modified Y NTAA target peptides (M17-Y-P2-peptide); experiment: encoding assay; P2 E;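 also: fraction of recording tags encoded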
[49] = molecular target: M17-modified A NTAA target peptides; experiment: encoding assay; P2 E;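 also: fraction of recording tags encoded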
[50] = molecular target: M17-modified W NTAA target peptides; experiment: encoding assay; P2 E;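 also: fraction of recording tags encoded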
[51] = molecular target: M17-modified H NTAA target peptides; experiment: encoding assay; P2 E;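 also: fraction of recording tags encoded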
[52] = molecular target: M17-modified D NTAA target peptides; experiment: encoding assay; P2 E;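 also: fraction of recording tags encoded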
[53] = molecular target: M17-modified I NTAA target peptides; experiment: encoding assay; P2 E;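 also: fraction of recording tags encoded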
[54] = molecular target: M17-modified P NTAA target peptides; experiment: encoding assay; P2 E;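 also: fraction of recording tags encoded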

B2: engineered M17-Y binder (SEQ ID NO: 61) (designed binder, not shown: small tags and cut ends; large carriers)
chain: TVPDRSEIAGKWYVVALASNTEFYLREKDWVKSAMARISFLGEDELKVSSAVPSPNGCYKVERTWKKTSDDGEVYNSRAAKLKVEVLDTDYKSYAVIYATRVKDGRTDHQMILYSRSPEVSPAATAIFRKLAGERNYTDEMVAMLPRQEECTVDEV
- P1 score [10]: 0.196
- encoding yield [11]: 0.01
- encoding yield [12]: 0.01
- encoding yield [13]: 0.01
- encoding yield [14]: 0.03
- encoding yield [15]: 0.01
- encoding yield [16]: 0.04
- encoding yield [17]: 0.04
- encoding yield [18]: 0.15
- encoding yield [19]: 0.01
- encoding yield [20]: 0.06
- encoding yield [21]: 0.03
- encoding yield [22]: 0.01
- encoding yield [23]: 0.01
- encoding yield [24]: 0.02
- encoding yield [25]: 0.02
- encoding yield [26]: 0.01
- encoding yield [27]: 0.04
- encoding yield [28]: 0.02
- encoding yield [29]: 0.04
- encoding yield [30]: 0.03
- encoding yield [31]: 0.02
- encoding yield [32]: 0.1
- encoding yield [33]: 0.02
- encoding yield [34]: 0.02
- encoding yield [35]: 0.01
- encoding yield [36]: 0.03
- encoding yield [37]: 0.01
- encoding yield [38]: 0.02
- encoding yield [39]: 0.02
- encoding yield [40]: 0.01
- encoding yield [41]: 0.02
- encoding yield [42]: 0.02
- encoding yield [43]: 0.01
- encoding yield [44]: 0.01
- encoding yield [45]: 0.01
- encoding yield [46]: 0.01
- encoding yield [47]: 0.02
- encoding yield [48]: 0.07
- encoding yield [49]: 0.02
- encoding yield [50]: 0.03
- encoding yield [51]: 0.02
- encoding yield [52]: 0.02
- encoding yield [53]: 0.01
- encoding yield [54]: 0.02

B4: engineered M44-L binder (SEQ ID NO: 21) (designed binder, not shown: small tags and cut ends; large carriers)
chain: QVSVQPNFQQDKFLGRWFYAGHASNSSWYREKVAALSMAKLVVAPATDGGLNATETFLRKNQCETITSLLQPAGSLGSYSSRSPHGGSTWSTSVVETDYDQYALLYLQGSKGPGEDFRGAILASRTQTPRAELKEKFTAFSKAQGFTEDTIVFLPQTDKCMTEQ
- P1 score [1]: 0.412

B5: engineered M44-A binder (SEQ ID NO: 42) (designed binder, not shown: small tags and cut ends; large carriers)
chain: QVSVQPNFQQDKFLGRWFVAGLASNSSWDREKVAALSGAKMVVAPATDGGLNVTRTMLRKNQCETYTGLLQPAGSLGSYSWRSPHPGSTGSESVVETDYDQYALVYGQGSKGPGEDLRAAALWSRTQTPRAELKEKFTAFSKAQGFTEDTIVFLPQTDKCMTEQ
- encoding yield [2]: 0.01
- encoding yield [3]: 0.01
- encoding yield [4]: 0.01
- encoding yield [5]: 0.01
- encoding yield [6]: 0.02
- encoding yield [7]: 0.01
- encoding yield [8]: 0.01
- encoding yield [9]: 0.01

Further lines, results first:

- P1 score [1]: 0.332
- encoding yield [2]: 0.03
- encoding yield [3]: 0.01
- encoding yield [4]: 0.01
- encoding yield [5]: 0.01
- encoding yield [6]: 0.02
- encoding yield [7]: 0.01
- encoding yield [8]: 0.01
- encoding yield [9]: 0.01
B1: engineered M44-L binder (SEQ ID NO: 31) (designed binder, not shown: small tags and cut ends; large carriers)
chain: QDSTQNLIPAPPLISVPLQPGFWTERFQGRWFLVGFAGNAVQKERQSRLTMQSLILELQEDNSYNITAINVRGQGCRYIISTLVPSSRPGQFTLGNIHSYPQIQSLDVQVADTDYDQFAMVFLQGTSENKQYFEVALAGRTKGLSDELKERFVSFAKSLGLKDNNIVFSVPTDQCIDN

- P1 score [10]: 0.204
- encoding yield [11]: 0.03
- encoding yield [12]: 0.01
- encoding yield [13]: 0.03
- encoding yield [14]: 0.02
- encoding yield [15]: 0.01
- encoding yield [16]: 0.02
- encoding yield [17]: 0.04
- encoding yield [18]: 0.21
- encoding yield [19]: 0.03
- encoding yield [20]: 0.06
- encoding yield [21]: 0.03
- encoding yield [22]: 0.01
- encoding yield [23]: 0.01
- encoding yield [24]: 0.02
- encoding yield [25]: 0.03
- encoding yield [26]: 0.02
- encoding yield [27]: 0.04
- encoding yield [28]: 0.04
- encoding yield [29]: 0.07
- encoding yield [30]: 0.04
- encoding yield [31]: 0.04
- encoding yield [32]: 0.22
- encoding yield [33]: 0.02
- encoding yield [34]: 0.03
- encoding yield [35]: 0.02
- encoding yield [36]: 0.05
- encoding yield [37]: 0.02
- encoding yield [38]: 0.03
- encoding yield [39]: 0.03
- encoding yield [40]: 0.02
- encoding yield [41]: 0.03
- encoding yield [42]: 0.03
- encoding yield [43]: 0.01
- encoding yield [44]: 0.02
- encoding yield [45]: 0.02
- encoding yield [46]: 0.02
- encoding yield [47]: 0.02
- encoding yield [48]: 0.16
- encoding yield [49]: 0.03
- encoding yield [50]: 0.06
- encoding yield [51]: 0.02
- encoding yield [52]: 0.02
- encoding yield [53]: 0.02
- encoding yield [54]: 0.04
B3: upgraded binder after additional maturation round (SEQ ID NO: 62) (designed binder, not shown: small tags and cut ends; large carriers)
chain: TVPDRSEIAGKWYVVALASNTEFYLRGKDRVKSAMVRISFQGEDELKVSSAVPSPNGCYKVERTWKKTSDDGEVYNSRAAKLKVEVLDTDYKSYAVIYATRVKDRRTDHQMILYSRSPDVSPAATAIFRKLAGERNYTDEMVAMLPRQEECTVDEV

— patent US20230220589A1
